Reference: the RNAGym collection of RNA variant scans (doi:10.1093/molbev/msab373)

B1: Azoarcus group I ribozyme (parent)
chain: GUGCCUUGCGCCGGGAAACCACGCAAGGGAUGGUGUCAAAUUCGGCGAAACCUAAGCGCCCGCCCGGGCGUAUGGCAACGCCGAGCCAAGCUUCGGCGCCUGCGCCGAUGAAGGUGUAGAGACUAGACGGCACCCACCUAAGGCAAACGCUAUGGUGAAGGCAUAGUCCAGGGAGUGGCGAAAGUCACACAAACCGG

Variants of: B1
Assay: reverse-splicing fitness (ratio to wild type); higher = more active; in vitro selection; Mg2+ level not given
How it was run: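 An in vitro group I ribozyme library with randomized positions was T7-transcribed and gel-purified. In triplicate, 10 pmol RNA in EPPS pH 7.5 was reacted with 50 pmoles of a 30-nt RNA substrate for 1 h at 37 °C across several added MgCl2 levels (1–48 mM), then stopped with EDTA. Products were reverse transcribed from a substrate-complementary primer, PCR-amplified and sequenced (HiSeq 4000). Fitness is a variant's read proportion after selection over that before, normalised to wild type.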

Variant	reverse-splicing fitness
C82G A111C A120C A145G C150G C169A U176C	0.0127
C82G A111C A120C A145G C150G C169A U176A	0.0142
C82G A111C A120C A145G C150G C169A U176G	0.0086
C82G A111C A120C C150A U176C	0.0203
C82G A111C A120C C150A U176A	0.0125
C82G A111C A120C C150A U176G	0.00842
C82G A111C A120C A145G C150U C169G	0.00759
C82G A111C A120C A145G C150U C169U	0.0124
C82G A111C A120C A145G C150U C169A	0.0101
C82G A111C A120C A145U	0.0547
C82G A111C A120C A145G	0.053
C82G A111C A120C A145C C169U U176C	0.0151
C82G A111C A120C A145C C169U U176A	0.0165
C82G A111C A120C A145C C169U U176G	0.00508
C82G A111C A120C A145G C150U C169U U176C	0.0131
C82G A111C A120C A145G C150U C169U U176A	0.0156
C82G A111C A120C A145G C150U C169U U176G	0.00732
C82G A111C A120C A145U U176A	0.0196
C82G A111C A120C A145U U176C	0.0239
C82G A111C A120C A145U U176G	0.00884
C82G A111C A120C A145G C150G C169U U176C	0.0117

Variant	reverse-splicing fitness
C82G A111C A120C A145G C150G C169U U176A	0.0116
C82G A111C A120C A145G C150G C169U U176G	0.0072
C82G A111C A120C A145C C169U	0.0151
C82G A111C A120C A145C C169A	0.00657
C82G A111C A120C A145C C169G	0.00843
C82G A111C A120C C150G	0.00951
C82G A111C A120C C150A	0.0114
C82G A111C A120C A145G C150G U176C	0.0113
C82G A111C A120C A145G C150G U176G	0.00667
C82G A111C A120C A145G C150G U176A	0.00652
C82G A111C A120C A145U C150A U176A	0.0102
C82G A111C A120C A145U C150A U176G	0.00601
C82G A111C A120C A145U C150A U176C	0.0153
C82G A111C A120C A145G C150U C169G U176C	0.0162
C82G A111C A120C A145G C150U C169G U176A	0.0122
C82G A111C A120C A145G C150U C169G U176G	0.00699
C82G A111C A120C A145U C150A	0.011
C82G A111C A120C A145U C150G	0.00916
C82G A111C A120C A145U C150U	0.0335
C82G A111C A120C A145U C169G U176G	0.00713
C82G A111C A120C A145U C169G U176A	0.0141

Variant	reverse-splicing fitness
C82G A111C A120C A145U C169G U176C	0.0177
C82G A111C A120C A145G C169G U176C	0.0253
C82G A111C A120C A145G C169G U176A	0.0188
C82G A111C A120C A145G C169G U176G	0.00618
C82G A111C A120C A145U C150U C169U U176A	0.015
C82G A111C A120C A145U C150U C169U U176G	0.00674
C82G A111C A120C A145U C150U C169U U176C	0.0153
C82G A111C A120C A145G C169U U176G	0.00614
C82G A111C A120C A145G C169U U176C	0.0158
C82G A111C A120C A145G C169U U176A	0.0139
C82G A111C A120C A145G C150U C169A U176G	0.00796
C82G A111C A120C A145G C150U C169A U176A	0.0153
C82G A111C A120C A145G C150U C169A U176C	0.0142
C82G A111C A120C A145C C150U C169U U176G	0.0064
C82G A111C A120C A145C C150U C169U U176C	0.0133
C82G A111C A120C A145U C169A U176G	0.0056
C82G A111C A120C A145U C169A U176A	0.0143
C82G A111C A120C A145U C169A U176C	0.0142
C82G A111C A120C A145U C150A C169G U176C	0.0169
C82G A111C A120C A145U C150A C169G U176A	0.0143
C82G A111C A120C A145U C150A C169G U176G	0.00775

Variant	reverse-splicing fitness
C82G A111C A120C A145U C150G C169A U176G	0.00726
C82G A111C A120C A145U C150G C169A U176A	0.0121
C82G A111C A120C A145U C150G C169A U176C	0.0108
C82G A111C A120C A145U C169G	0.00877
C82G A111C A120C A145U C169U	0.0143
C82G A111C A120C A145U C169A	0.00731
C82G A111C A120C A145G C150A C169U	0.0117
C82G A111C A120C A145G C150A C169A	0.0122
C82G A111C A120C A145G C150A C169G	0.00768
C82G A111C A120C A145U C150U U176C	0.02
C82G A111C A120C A145U C150U U176G	0.00688
C82G A111C A120C A145U C150U U176A	0.0132
C82G A111C A120C A145G C150A C169A U176C	0.0188
C82G A111C A120C A145G C150A C169A U176A	0.0165
C82G A111C A120C A145G C150A C169A U176G	0.00862
C82G A111C A120C A145U C150G C169U U176G	0.0068
C82G A111C A120C A145U C150G C169U U176C	0.0121
C82G A111C A120C A145U C150G C169U U176A	0.00736
C82G A111C A120C A145U C150G U176C	0.0099
C82G A111C A120C A145U C150G U176G	0.00383
C82G A111C A120C A145U C150G U176A	0.00549
